T1: GRIP1_7, Q9Y3R0
T1 sequence (Q9Y3R0 999-1096, limits assumed, looked up): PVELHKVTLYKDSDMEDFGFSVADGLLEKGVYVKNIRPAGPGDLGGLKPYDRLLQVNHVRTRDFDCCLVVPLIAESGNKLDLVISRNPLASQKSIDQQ

T2: DLG3_3, Q92796
T2 sequence (Q92796 374-475, limits assumed, looked up): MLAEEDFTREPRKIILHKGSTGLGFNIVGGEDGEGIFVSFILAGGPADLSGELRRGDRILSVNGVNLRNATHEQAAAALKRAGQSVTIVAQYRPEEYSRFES

T3: PCLO, Q9Y6V0
T3 sequence (Q9Y6V0 4491-4600, limits assumed, looked up): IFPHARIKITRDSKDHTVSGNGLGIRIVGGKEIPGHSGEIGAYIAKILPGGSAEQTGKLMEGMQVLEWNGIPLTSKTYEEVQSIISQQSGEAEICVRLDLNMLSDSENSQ

T4: DFNB31_1, Q9P202
T4 sequence (Q9P202 135-233, limits assumed, looked up): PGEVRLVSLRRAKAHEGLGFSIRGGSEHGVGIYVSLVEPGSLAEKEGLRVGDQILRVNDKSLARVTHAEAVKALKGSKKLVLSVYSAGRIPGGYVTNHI

T5: DVL3, Q92997
T5 sequence (Q92997 244-331, limits assumed, looked up): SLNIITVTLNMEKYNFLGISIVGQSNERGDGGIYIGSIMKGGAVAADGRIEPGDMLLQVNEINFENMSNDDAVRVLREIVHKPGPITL

T6: TIAM2, Q8IVF5
T6 sequence (Q8IVF5 885-986, limits assumed, looked up): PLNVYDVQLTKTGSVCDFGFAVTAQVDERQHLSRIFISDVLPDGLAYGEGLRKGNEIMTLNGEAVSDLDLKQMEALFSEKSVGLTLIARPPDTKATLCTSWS

T7: GRIP1_3, Q9Y3R0
T7 sequence (Q9Y3R0 247-346, limits assumed, looked up): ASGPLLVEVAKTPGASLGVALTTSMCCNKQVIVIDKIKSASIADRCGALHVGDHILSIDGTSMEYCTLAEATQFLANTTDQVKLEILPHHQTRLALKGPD

T8: DFNB31_3, Q9P202
T8 sequence (Q9P202 811-907, limits assumed, looked up): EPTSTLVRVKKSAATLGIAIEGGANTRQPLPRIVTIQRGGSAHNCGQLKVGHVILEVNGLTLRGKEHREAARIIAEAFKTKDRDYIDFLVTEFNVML

T9: CARD11, Q9BXL7
T9 sequence (Q9BXL7 662-765, limits assumed, looked up): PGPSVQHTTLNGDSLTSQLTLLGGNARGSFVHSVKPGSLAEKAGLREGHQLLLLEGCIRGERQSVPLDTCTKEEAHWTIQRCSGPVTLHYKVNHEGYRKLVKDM

T10: RHPN1, Q8TCX5
T10 sequence (Q8TCX5 508-602, limits assumed, looked up): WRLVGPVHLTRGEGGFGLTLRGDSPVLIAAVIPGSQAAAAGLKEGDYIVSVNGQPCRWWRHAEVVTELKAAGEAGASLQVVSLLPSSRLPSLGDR

T11: LNX2_3, Q8N448
T11 sequence (Q8N448 463-564, limits assumed, looked up): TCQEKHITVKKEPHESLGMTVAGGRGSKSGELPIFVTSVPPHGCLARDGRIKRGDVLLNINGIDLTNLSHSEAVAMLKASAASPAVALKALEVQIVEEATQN


molecular target: T1, GRIP1_7, Q9Y3R0; experiment: holdup assay; parameters: key: below the threshold = too weak to quantify, mostly under pKd 3.1 to 4; conditions: plain residues with an end cap or a label only (N-terminal biotin on a linker: ttds)

Question: For RRVRKLPSTTL [RPS6KA1, Q15418], which pKd is on record?
Answer: The pKd was 3.85.

molecular target: T2, DLG3_3, Q92796; experiment: holdup assay; parameters: key: below the threshold = too weak to quantify, mostly under pKd 3.1 to 4; conditions: plain residues with an end cap or a label only (N-terminal biotin on a linker: ttds)

Question: How did the pKd turn out when RRVRKLPSTTL [RPS6KA1, Q15418] was run?
Answer: The pKd was “below the threshold”.

molecular target: DLG1_1, Q12959; experiment: holdup assay; parameters: key: below the threshold = too weak to quantify, mostly under pKd 3.1 to 4; conditions: plain residues with an end cap or a label only (N-terminal biotin on a linker: ttds)

Question: With RRVRKLPSTTL [RPS6KA1, Q15418] as the binder, how does the pKd read?
Answer: The pKd was “below the threshold”.

molecular target: MAGI2_3, Q86UL8; experiment: holdup assay; parameters: key: below the threshold = too weak to quantify, mostly under pKd 3.1 to 4; conditions: plain residues with an end cap or a label only (N-terminal biotin on a linker: ttds)
Sequence (Q86UL8 600-682): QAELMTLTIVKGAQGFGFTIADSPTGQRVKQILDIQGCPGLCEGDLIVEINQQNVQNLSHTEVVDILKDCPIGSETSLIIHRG

Question: With RRVRKLPSTTL [RPS6KA1, Q15418] as the binder, how does the pKd read?
Answer: Its pKd is 3.63.

molecular target: DLG1_2, Q12959; experiment: holdup assay; parameters: key: below the threshold = too weak to quantify, mostly under pKd 3.1 to 4; conditions: plain residues with an end cap or a label only (N-terminal biotin on a linker: ttds)

Question: Which pKd does the source give for RRVRKLPSTTL [RPS6KA1, Q15418] here?
Answer: Its pKd is 3.7.

molecular target: T3, PCLO, Q9Y6V0; experiment: holdup assay; parameters: key: below the threshold = too weak to quantify, mostly under pKd 3.1 to 4; conditions: plain residues with an end cap or a label only (N-terminal biotin on a linker: ttds)

Question: How did the pKd turn out when RRVRKLPSTTL [RPS6KA1, Q15418] was run?
Answer: The pKd was “below the threshold”.

molecular target: T4, DFNB31_1, Q9P202; experiment: holdup assay; parameters: key: below the threshold = too weak to quantify, mostly under pKd 3.1 to 4; conditions: plain residues with an end cap or a label only (N-terminal biotin on a linker: ttds)

Question: RRVRKLPSTTL [RPS6KA1, Q15418] was tested. Which pKd did it give?
Answer: The pKd was 3.53.

molecular target: MAGI2_5, Q86UL8; experiment: holdup assay; parameters: key: below the threshold = too weak to quantify, mostly under pKd 3.1 to 4; conditions: plain residues with an end cap or a label only (N-terminal biotin on a linker: ttds)
Sequence (Q86UL8 915-1017): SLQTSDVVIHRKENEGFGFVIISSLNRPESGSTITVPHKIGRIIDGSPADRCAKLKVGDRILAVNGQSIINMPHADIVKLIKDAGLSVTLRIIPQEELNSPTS

Question: With RRVRKLPSTTL [RPS6KA1, Q15418] as the binder, how does the pKd read?
Answer: Its pKd is “below the threshold”.

molecular target: TJP2_1, Q9UDY2; experiment: holdup assay; parameters: key: below the threshold = too weak to quantify, mostly under pKd 3.1 to 4; conditions: plain residues with an end cap or a label only (N-terminal biotin on a linker: ttds)
Sequence (Q9UDY2 24-128): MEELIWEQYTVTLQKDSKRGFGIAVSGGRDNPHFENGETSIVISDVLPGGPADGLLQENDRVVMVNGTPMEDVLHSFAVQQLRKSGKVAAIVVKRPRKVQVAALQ

Question: RRVRKLPSTTL [RPS6KA1, Q15418] was tested. Which pKd did it give?
Answer: Its pKd is “below the threshold”.

molecular target: FRMPD3, Q5JV73; experiment: holdup assay; parameters: key: below the threshold = too weak to quantify, mostly under pKd 3.1 to 4; conditions: plain residues with an end cap or a label only (N-terminal biotin on a linker: ttds)
Sequence (Q5JV73 12-100): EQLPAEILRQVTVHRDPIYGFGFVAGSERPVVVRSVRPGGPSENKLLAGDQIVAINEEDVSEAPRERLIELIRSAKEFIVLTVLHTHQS

Question: Which pKd does the source give for RRVRKLPSTTL [RPS6KA1, Q15418] here?
Answer: The pKd was “below the threshold”.

molecular target: MAGI1_2, Q96QZ7; experiment: holdup assay; parameters: key: below the threshold = too weak to quantify, mostly under pKd 3.1 to 4; conditions: plain residues with an end cap or a label only (N-terminal biotin on a linker: ttds)
Sequence (Q96QZ7 456-580): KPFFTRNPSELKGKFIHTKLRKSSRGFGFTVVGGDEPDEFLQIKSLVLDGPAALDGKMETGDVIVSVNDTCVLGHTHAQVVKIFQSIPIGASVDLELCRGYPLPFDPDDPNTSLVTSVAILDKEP

Question: For RRVRKLPSTTL [RPS6KA1, Q15418], which pKd is on record?
Answer: Its pKd is 4.3.

molecular target: DLG4_3, P78352; experiment: holdup assay; parameters: key: below the threshold = too weak to quantify, mostly under pKd 3.1 to 4; conditions: plain residues with an end cap or a label only (N-terminal biotin on a linker: ttds)
Sequence (P78352 306-403): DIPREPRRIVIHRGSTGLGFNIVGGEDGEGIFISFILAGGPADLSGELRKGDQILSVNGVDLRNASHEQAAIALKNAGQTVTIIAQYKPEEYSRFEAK

Question: How did the pKd turn out when RRVRKLPSTTL [RPS6KA1, Q15418] was run?
Answer: The pKd was “below the threshold”.

molecular target: T5, DVL3, Q92997; experiment: holdup assay; parameters: key: below the threshold = too weak to quantify, mostly under pKd 3.1 to 4; conditions: plain residues with an end cap or a label only (N-terminal biotin on a linker: ttds)

Question: How did the pKd turn out when RRVRKLPSTTL [RPS6KA1, Q15418] was run?
Answer: Its pKd is “below the threshold”.

molecular target: SCRIB_3, Q14160; experiment: holdup assay; parameters: key: below the threshold = too weak to quantify, mostly under pKd 3.1 to 4; conditions: plain residues with an end cap or a label only (N-terminal biotin on a linker: ttds)
Sequence (Q14160 999-1103): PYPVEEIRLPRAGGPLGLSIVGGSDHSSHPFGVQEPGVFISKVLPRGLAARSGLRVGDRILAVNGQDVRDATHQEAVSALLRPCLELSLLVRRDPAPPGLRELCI

Question: Which pKd does the source give for RRVRKLPSTTL [RPS6KA1, Q15418] here?
Answer: The pKd was 4.36.

molecular target: PTPN3, P26045; experiment: holdup assay; parameters: key: below the threshold = too weak to quantify, mostly under pKd 3.1 to 4; conditions: plain residues with an end cap or a label only (N-terminal biotin on a linker: ttds)
Sequence (P26045 505-587): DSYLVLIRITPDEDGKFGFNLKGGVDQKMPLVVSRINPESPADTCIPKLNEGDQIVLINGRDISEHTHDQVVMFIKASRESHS

Question: For RRVRKLPSTTL [RPS6KA1, Q15418], which pKd is on record?
Answer: Its pKd is 3.93.

molecular target: Inadl_6, Q8NI35; experiment: holdup assay; parameters: key: below the threshold = too weak to quantify, mostly under pKd 3.1 to 4; conditions: plain residues with an end cap or a label only (N-terminal biotin on a linker: ttds)
Sequence (Q8NI35 1058-1167): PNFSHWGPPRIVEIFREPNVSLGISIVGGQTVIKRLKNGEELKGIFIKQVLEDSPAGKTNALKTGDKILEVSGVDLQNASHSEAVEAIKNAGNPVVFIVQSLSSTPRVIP

Question: Which pKd does the source give for RRVRKLPSTTL [RPS6KA1, Q15418] here?
Answer: Its pKd is “below the threshold”.

molecular target: NHERF2_2, Q15599; experiment: holdup assay; parameters: key: below the threshold = too weak to quantify, mostly under pKd 3.1 to 4; conditions: plain residues with an end cap or a label only (N-terminal biotin on a linker: ttds)
Sequence (Q15599 142-238): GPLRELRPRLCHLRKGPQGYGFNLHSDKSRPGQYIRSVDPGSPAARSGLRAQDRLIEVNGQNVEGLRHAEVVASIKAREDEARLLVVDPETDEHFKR

Question: For RRVRKLPSTTL [RPS6KA1, Q15418], which pKd is on record?
Answer: The pKd was 3.97.

molecular target: T6, TIAM2, Q8IVF5; experiment: holdup assay; parameters: key: below the threshold = too weak to quantify, mostly under pKd 3.1 to 4; conditions: plain residues with an end cap or a label only (N-terminal biotin on a linker: ttds)

Question: For RRVRKLPSTTL [RPS6KA1, Q15418], which pKd is on record?
Answer: Its pKd is 3.5.

molecular target: MAST1, Q9Y2H9; experiment: holdup assay; parameters: key: below the threshold = too weak to quantify, mostly under pKd 3.1 to 4; conditions: plain residues with an end cap or a label only (N-terminal biotin on a linker: ttds)
Sequence (Q9Y2H9 962-1065): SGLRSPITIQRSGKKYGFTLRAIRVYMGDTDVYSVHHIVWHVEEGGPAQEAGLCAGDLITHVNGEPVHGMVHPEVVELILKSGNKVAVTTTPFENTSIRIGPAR

Question: How did the pKd turn out when RRVRKLPSTTL [RPS6KA1, Q15418] was run?
Answer: Its pKd is 4.68.

molecular target: Inadl_10, Q8NI35; experiment: holdup assay; parameters: key: below the threshold = too weak to quantify, mostly under pKd 3.1 to 4; conditions: plain residues with an end cap or a label only (N-terminal biotin on a linker: ttds)
Sequence (Q8NI35 1673-1763): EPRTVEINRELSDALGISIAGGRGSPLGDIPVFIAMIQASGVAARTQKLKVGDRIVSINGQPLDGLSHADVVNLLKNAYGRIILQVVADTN

Question: With RRVRKLPSTTL [RPS6KA1, Q15418] as the binder, how does the pKd read?
Answer: Its pKd is “below the threshold”.

molecular target: T7, GRIP1_3, Q9Y3R0; experiment: holdup assay; parameters: key: below the threshold = too weak to quantify, mostly under pKd 3.1 to 4; conditions: plain residues with an end cap or a label only (N-terminal biotin on a linker: ttds)

Question: How did the pKd turn out when RRVRKLPSTTL [RPS6KA1, Q15418] was run?
Answer: The pKd was “below the threshold”.

molecular target: T8, DFNB31_3, Q9P202; experiment: holdup assay; parameters: key: below the threshold = too weak to quantify, mostly under pKd 3.1 to 4; conditions: plain residues with an end cap or a label only (N-terminal biotin on a linker: ttds)

Question: RRVRKLPSTTL [RPS6KA1, Q15418] was tested. Which pKd did it give?
Answer: The pKd was 4.14.

molecular target: T9, CARD11, Q9BXL7; experiment: holdup assay; parameters: key: below the threshold = too weak to quantify, mostly under pKd 3.1 to 4; conditions: plain residues with an end cap or a label only (N-terminal biotin on a linker: ttds)

Question: With RRVRKLPSTTL [RPS6KA1, Q15418] as the binder, how does the pKd read?
Answer: Its pKd is “below the threshold”.

molecular target: T10, RHPN1, Q8TCX5; experiment: holdup assay; parameters: key: below the threshold = too weak to quantify, mostly under pKd 3.1 to 4; conditions: plain residues with an end cap or a label only (N-terminal biotin on a linker: ttds)

Question: Which pKd does the source give for RRVRKLPSTTL [RPS6KA1, Q15418] here?
Answer: Its pKd is 4.26.

molecular target: GRID2IP_2, A4D2P6; experiment: holdup assay; parameters: key: below the threshold = too weak to quantify, mostly under pKd 3.1 to 4; conditions: plain residues with an end cap or a label only (N-terminal biotin on a linker: ttds)
Sequence (A4D2P6 272-370): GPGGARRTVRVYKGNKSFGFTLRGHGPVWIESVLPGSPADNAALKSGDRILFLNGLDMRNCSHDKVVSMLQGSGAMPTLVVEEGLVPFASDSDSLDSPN

Question: Which pKd does the source give for RRVRKLPSTTL [RPS6KA1, Q15418] here?
Answer: Its pKd is 5.05.

molecular target: CASK, O14936; experiment: holdup assay; parameters: key: below the threshold = too weak to quantify, mostly under pKd 3.1 to 4; conditions: plain residues with an end cap or a label only (N-terminal biotin on a linker: ttds)
Sequence (O14936 487-570): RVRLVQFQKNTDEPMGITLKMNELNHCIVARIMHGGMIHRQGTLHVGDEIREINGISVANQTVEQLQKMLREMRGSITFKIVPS

Question: For RRVRKLPSTTL [RPS6KA1, Q15418], which pKd is on record?
Answer: The pKd was “below the threshold”.

molecular target: T11, LNX2_3, Q8N448; experiment: holdup assay; parameters: key: below the threshold = too weak to quantify, mostly under pKd 3.1 to 4; conditions: plain residues with an end cap or a label only (N-terminal biotin on a linker: ttds)

Question: How did the pKd turn out when RRVRKLPSTTL [RPS6KA1, Q15418] was run?
Answer: Its pKd is 3.71.
